Assay [1] concerns the target human CD20 on cells (human) (UniProt P11836). Description: flow cytometry, 697 (ALL) cells; no mAb 4.9. (A flow cytometer gives signals particle by particle.)
Assay [2] shares this target. Nature of the assay: flow cytometry, REH (ALL) cells; no mAb 3.9.
For assay [3] the target is unchanged. Nature of the assay: flow cytometry, K562 (CML) cells; no mAb 3.2.
The target is the same in assay [4]. Description: flow cytometry, MN60 (ALL) cells; no mAb 8.1.
Assay [5] has the same target. Nature of the assay: flow cytometry, WAC (CLL) cells; no mAb 15.8.
The target is the same in assay [6]. Description: flow cytometry, MEC-1 (CLL) cells; no mAb 4.7.
The target is the same in assay [7]. Nature of the assay: flow cytometry, GDM-1 (AML) cells; no mAb 16.8.
Assay [8] has the same target. Nature of the assay: flow cytometry, RS4;11 (ALL) cells; no mAb 6.4.
The target is the same in assay [9]. Description: flow cytometry, Jeko-1 (MCL) cells; no mAb 14.3.
Assay [10] concerns the target canine CD20 on dog lymphocytes and lymphoma cells (dog) (UniProt Q3C2E2). Nature of the assay: flow cytometry, dog lymphoma aspirate; none 3.37.
For assay [11] the target is unchanged. Description: flow cytometry, dog lymphoma aspirate; none 3.85.
Assay [12] deals with human CD20 on cells (human) (UniProt P11836). Nature of the assay: flow cytometry, Kasumi-3 (AML) cells; no mAb 9.6.
Chain of human CD20 on cells (human) (P11836 whole entry): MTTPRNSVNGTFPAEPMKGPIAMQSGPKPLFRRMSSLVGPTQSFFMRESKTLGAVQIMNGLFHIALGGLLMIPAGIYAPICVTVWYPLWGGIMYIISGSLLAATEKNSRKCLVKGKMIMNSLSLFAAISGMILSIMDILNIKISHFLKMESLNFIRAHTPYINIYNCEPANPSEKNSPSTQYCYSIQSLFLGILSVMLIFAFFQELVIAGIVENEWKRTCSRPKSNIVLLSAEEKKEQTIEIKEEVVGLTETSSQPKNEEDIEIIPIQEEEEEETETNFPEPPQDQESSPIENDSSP
The target is the same in assay [13]. Description: flow cytometry, Kasumi-1 (AML) cells; no mAb 18.2.
The target is the same in assay [14]. Description: flow cytometry, Granta-519 (MCL) cells; no mAb 15.3.
Assay [15] concerns the target canine CD20 on dog lymphocytes and lymphoma cells (dog) (UniProt Q3C2E2). Nature of the assay: flow cytometry, canine lymphoma aspirate 150836; none 3.4.
The target is the same in assay [16]. Nature of the assay: flow cytometry, canine lymphoma aspirate 150836; none 3.9.
In assay [17] the target is human CD20 on cells (human) (UniProt P11836). Description: indirect flow cytometry, Namalwa cells, FITC-GAM; none 2.91.
Assay [18] shares this target. Description: flow cytometry, HC-1 (hairy cell leukemia) cells; no mAb 4.8.
Assay [19] has as its target human leukocyte antigen-DR (HLA-DR) on human lymphoma and leukemia cell lines and human lymphocytes (human). Description: flow cytometry, 697 (ALL) cells; no mAb 4.9; isotype control.
Assay [20] shares this target. Description: flow cytometry, REH (ALL) cells; no mAb 3.9; isotype control.
For assay [21] the target is unchanged. Nature of the assay: flow cytometry, K562 (CML) cells; no mAb 3.2; isotype control.
The target is the same in assay [22]. Nature of the assay: flow cytometry, MN60 (ALL) cells; no mAb 8.1; isotype control.
Assay [23] shares this target. Description: flow cytometry, WAC (CLL) cells; no mAb 15.8; isotype control.
Assay [24] has the same target. Nature of the assay: flow cytometry, MEC-1 (CLL) cells; no mAb 4.7; isotype control.
For assay [25] the target is unchanged. Nature of the assay: flow cytometry, GDM-1 (AML) cells; no mAb 16.8; isotype control.
Assay [26] has the same target. Description: flow cytometry, RS4;11 (ALL) cells; no mAb 6.4; isotype control.
Assay [27] has the same target. Nature of the assay: flow cytometry, Jeko-1 (MCL) cells; no mAb 14.3; isotype control.
Assay [28] has the same target. Nature of the assay: flow cytometry, Kasumi-3 (AML) cells; no mAb 9.6; isotype control.
The target of assay [29] is antigen recognised by L243 on canine lymphocytes and canine lymphoma cells (HLA-DR of the dog) (dog). Nature of the assay: flow cytometry, dog lymphoma aspirate; none 3.37; control antibody.
The target is the same in assay [30]. Nature of the assay: flow cytometry, dog lymphoma aspirate; none 3.85; control antibody.
Assay [31] concerns the target human leukocyte antigen-DR (HLA-DR) on human lymphoma and leukemia cell lines and human lymphocytes (human). Nature of the assay: flow cytometry, Kasumi-1 (AML) cells; no mAb 18.2; isotype control.
For assay [32] the target is unchanged. Description: flow cytometry, Granta-519 (MCL) cells; no mAb 15.3; isotype control.
In assay [33] the target is antigen recognised by L243 on canine lymphocytes and canine lymphoma cells (HLA-DR of the dog) (dog). Description: flow cytometry, canine lymphoma aspirate 150836; none 3.4; control antibody.
Assay [34] shares this target. Nature of the assay: flow cytometry, canine lymphoma aspirate 150836; none 3.9; control antibody.
Assay [35] deals with human leukocyte antigen-DR (HLA-DR) on human lymphoma and leukemia cell lines and human lymphocytes (human). Description: indirect flow cytometry, Namalwa cells, FITC-GAM; none 2.91; control antibody.
The target is the same in assay [36]. Nature of the assay: flow cytometry, HC-1 (hairy cell leukemia) cells; no mAb 4.8; isotype control.
In assay [37] the target is canine CD22 on dog lymphocytes and lymphoma cells (dog). Description: flow cytometry, dog lymphoma aspirate; none 3.24.
For assay [38] the target is unchanged. Nature of the assay: flow cytometry, dog lymphoma aspirate; none 4.48.
Assay [39] has the same target. Nature of the assay: flow cytometry, canine lymphoma aspirate 150836; none 3.2.
Assay [40] has the same target. Nature of the assay: flow cytometry, canine lymphoma aspirate 150836; none 4.5.
Assay [41] concerns the target human leukocyte antigen-DR (HLA-DR) on human lymphoma and leukemia cell lines and human lymphocytes (human). Description: indirect flow cytometry, Namalwa cells, FITC-GAH; none 2.52; irrelevant antibody.
In assay [42] the target is canine CD22 on dog lymphocytes and lymphoma cells (dog). Nature of the assay: flow cytometry, dog lymphoma aspirate; none 3.37.
For assay [43] the target is unchanged. Nature of the assay: flow cytometry, dog lymphoma aspirate; none 3.85.
For assay [44] the target is unchanged. Description: flow cytometry, canine lymphoma aspirate 150836; none 3.4.
Assay [45] shares this target. Description: flow cytometry, canine lymphoma aspirate 150836; none 3.9.
Assay [46] concerns the target human leukocyte antigen-DR (HLA-DR) on human lymphoma and leukemia cell lines and human lymphocytes (human). Description: indirect flow cytometry, Namalwa cells, FITC-GAM; none 2.91; irrelevant antibody.

Chain of canine CD20 on dog lymphocytes and lymphoma cells (dog) (Q3C2E2 whole entry): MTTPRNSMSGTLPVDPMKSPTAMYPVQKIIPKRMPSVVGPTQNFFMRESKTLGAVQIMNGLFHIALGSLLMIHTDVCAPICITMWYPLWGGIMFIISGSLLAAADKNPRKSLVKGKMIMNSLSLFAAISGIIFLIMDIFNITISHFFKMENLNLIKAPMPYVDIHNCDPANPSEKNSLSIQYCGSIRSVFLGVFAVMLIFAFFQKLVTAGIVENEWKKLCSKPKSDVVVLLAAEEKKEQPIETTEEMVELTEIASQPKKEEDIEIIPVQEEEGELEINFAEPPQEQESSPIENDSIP

As for 2B8 (murine anti-CD20 mAb) (antibody), the mean FL worked out at 6.9 in assay [1]; 23.5 in assay [2]; 4.3 in assay [3]; 162 in assay [4]; 275 in assay [5]; 175 in [6]. Besides, the mean FL was 15.6 in [7]; 11.5 in assay [8]; 455 in assay [9]; 3.11 in [10]; 11 in [12]; 14.5 in assay [13]. In addition, the mean FL was 677 in [14], 3.1 in assay [15] and 42.2 in assay [18]. For the same substance, the % Positive was 2.61% in assay [11] and 2.6% in [16]. Further, the GEO MEAN Fluorescence in assay [17] is 6.16.

“Ag8 (P3x63 Ag8, murine myeloma derived mAb) (antibody)”: the mean FL in assay [19] worked out at 5.6; in assay [20] it was 3.9; in assay [21], 4.1; in [22] it was 10.5; in assay [23], 14.4; in assay [24], 6. Moreover, the mean FL in assay [25] was 20.1; in [26], 8.6; in assay [27], 17.4; in assay [28] it was 15.7; in assay [29] it was 3.04; in assay [31], 17. Moreover, the mean FL was 16.9 in [32], 3 in [33] and 3.5 in assay [36]. Also, the % Positive stood at 2.81% in assay [30] and 2.8% in assay [34]. The substance further showed a GEO MEAN Fluorescence in assay [35] of 3.64.

“epratuzumab (hLL2, humanized anti-CD22 mAb) (antibody)”: the figures for the mean FL in assay [37] and in assay [39] were 3.37 and 3.4, respectively. The % Positive amounted to 4.85% in [38] and 4.9% in [40].

The substance hRS7 (humanized anti-EGP-1) (antibody) displayed a GEO MEAN Fluorescence in [41] of 2.47.

As for murine LL2 (anti-human CD22) (antibody), the mean FL is 3.73 in [42] and 3.7 in assay [44]. In addition, the % Positive in [43] amounted to 5.05%; in assay [45], 5.1%.

murine RS7 (antibody) showed a GEO MEAN Fluorescence in assay [46] of 3.39.

The record behind these values is US20100196266A1.
